In data set [1] the test system is HeLa Kyoto. As to the kind of experiment: solubility in G1/S (NP-40 vs SDS abundance) (log2 ratio); higher = more soluble. The following applies: cell cycle stage: G1/S.
Data set [2] deals with HeLa Kyoto. The data set is described as follows: melting temperature (median over replicates), in situ; higher = more thermally stable.
The test system of data set [3] is HeLa Kyoto. The data set is described as follows: solubility change mitosis vs G1/S (difference of NP-40 vs SDS log2 ratios) (log2 ratio difference); higher = more soluble in mitosis.
Data set [4] deals with HeLa Kyoto. As to the kind of experiment: thermal stability score vs G1/S (z-score of summed log2 fold changes over temperatures); higher = more thermally stable than in G1/S.
Setting [5] is: cell cycle stage: early G1 (4.5 h after nocodazole release).
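Throughout, for melting temperature (median over replicates), in situ: HeLa Kyoto cells synchronized by double thymidine or nocodazole block, proteins quantified by TMT10plex mass spectrometry, three independent biological replicates.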
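Throughout, for solubility change mitosis vs G1/S (difference of NP-40 vs SDS log2 ratios): synchronized HeLa Kyoto cells (double thymidine block for G1/S, nocodazole release for mitosis), protein amounts in NP-40 versus SDS lysates quantified by mass spectrometry, three biological replicates.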
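Throughout, for solubility in G1/S (NP-40 vs SDS abundance): HeLa Kyoto cells arrested at G1/S by double thymidine block, proteins quantified by TMT10plex mass spectrometry in mild NP-40 versus SDS extracts, three biological replicates.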
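Throughout, for thermal stability score vs G1/S (z-score of summed log2 fold changes over temperatures): synchronized HeLa Kyoto cells, proteins quantified by TMT10plex mass spectrometry, three biological replicates, mitosis taken 0.5 h after nocodazole release, G1/S directly after double thymidine block.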

As for “MEEMSGESVVSSAVPAAATRTTSFKGTSPSSKYVKLNVGGALYYTTMQTLTKQDTMLKAMFSGRMEVLTDSEGWILIDRCGKHFGTILNYLRDGAVPLPESRREIEELLAEAKYYLVQGLVEECQAALQNKDTYEPFCKVPVITSSKEEQKLIATSNKPAVKLLYNRSNNKYSYTSNSDDNMLKNIELFDKLSLRFNGRVLFIKDVIGDEICCWSFYGQGRKIAEVCCTSIVYATEKKQTKVEFPEARIYEETLNILLYEAQDGRGPDNALLEATGGAAGRSHHLDEDEERERIERVRRIHIKRPDDRAHLHQ [KCTD10]”, the “solubility in G1/S (log2)” value in the data set with HeLa Kyoto [1] was -1.29. In the data set on HeLa Kyoto [2] (cell cycle stage: mitosis), the melting temperature is 51.6 °C. Moreover, the “solubility change mitosis (log2)” value in the data set with HeLa Kyoto [3] came out at 0.647. Moreover, the thermal stability score was determined as 0.937 in the data set with HeLa Kyoto [4] (setting [5]) and 1.24 in the data set with HeLa Kyoto [4] (cell cycle stage: mitosis).

For “MEESPLSRAPSRGGVNFLNVARTYIPNTKVECHYTLPPGTMPSASDWIGIFKVEAACVRDYHTFVWSSVPESTTDGSPIHTSVQFQASYLPKPGAQLYQFRYVNRQGQVCGQSPPFQFREPRPMDELVTLEEADGGSDILLVVPKATVLQNQLDESQQERNDLMQLKLQLEGQVTELRSRVQELERALATARQEHTELMEQYKGISRSHGEITEERDILSRQQGDHVARILELEDDIQTISEKVLTKEVELDRLRDTVKALTREQEKLLGQLKEVQADKEQSEAELQVAQQENHHLNLDLKEAKSWQEEQSAQAQRLKDKVAQMKDTLGQAQQRVAELEPLKEQLRGAQELAASSQQKATLLGEELASAAAARDRTIAELHRSRLEVAEVNGRLAELGLHLKEEKCQWSKERAGLLQSVEAEKDKILKLSAEILRLEKAVQEERTQNQVFKTELAREKDSSLVQLSESKRELTELRSALRVLQKEKEQLQEEKQELLEYMRKLEARLEKVADEKWNEDATTEDEEAAVGLSCPAALTDSEDESPEDMRLPPYGLCERGDPGSSPAGPREASPLVVISQPAPISPHLSGPAEDSSSDSEAEDEKSVLMAAVQSGGEEANLLLPELGSAFYDMASGFTVGTLSETSTGGPATPTWKECPICKERFPAESDKDALEDHMDGHFFFSTQDPFTFE [CALCOCO1]”, the “solubility in G1/S (log2)” value in the data set on HeLa Kyoto [1] came out at 0.13. Also, the melting temperature in the data set on HeLa Kyoto [2] (cell cycle stage: G1/S) was 50.2 °C; with HeLa Kyoto [2] (cell cycle stage: mitosis) it was 50.3 °C. The “solubility change mitosis (log2)” value with HeLa Kyoto [3] was -0.128. The thermal stability score with HeLa Kyoto [4] (setting [5]) came out at 0.0224; in the data set with HeLa Kyoto [4] (cell cycle stage: mitosis), 0.762.

As for “MEETIKDPPTSAVLLDHCHFSQVIFNSVEKFYIPGGDVTCHYTFTQHFIPRRKDWIGIFRVGWKTTREYYTFMWVTLPIDLNNKSAKQQEVQFKAYYLPKDDEYYQFCYVDEDGVVRGASIPFQFRPENEEDILVVTTQGEVEEIEQHNKELCKENQELKDSCISLQKQNSDMQAELQKKQEELETLQSINKKLELKVKEQKDYWETELLQLKEQNQKMSSENEKMGIRVDQLQAQLSTQEKEMEKLVQGDQDKTEQLEQLKKENDHLFLSLTEQRKDQKKLEQTVEQMKQNETTAMKKQQELMDENFDLSKRLSENEIICNALQRQKERLEGENDLLKRENSRLLSYMGLDFNSLPYQVPTSDEGGARQNPGLAYGNPYSGIQESSSPSPLSIKKCPICKADDICDHTLEQQQMQPLCFNCPICDKIFPATEKQIFEDHVFCHSL [CALCOCO2]”, in the data set on HeLa Kyoto [1], the “solubility in G1/S (log2)” value was 0.203. Moreover, the melting temperature was 50.5 °C with HeLa Kyoto [2] (cell cycle stage: G1/S) and 51 °C in the data set with HeLa Kyoto [2] (cell cycle stage: mitosis). Also, the “solubility change mitosis (log2)” value with HeLa Kyoto [3] is -0.0722. The thermal stability score was -0.458 in the data set on HeLa Kyoto [4] (setting [5]) and -0.851 in the data set on HeLa Kyoto [4] (cell cycle stage: mitosis).

Turning to “MEEVPHDCPGADSAQAGRGASCQGCPNQRLCASGAGATPDTAIEEIKEKMKTVKHKILVLSGKGGVGKSTFSAHLAHGLAEDENTQIALLDIDICGPSIPKIMGLEGEQVHQSGSGWSPVYVEDNLGVMSVGFLLSSPDDAVIWRGPKKNGMIKQFLRDVDWGEVDYLIVDTPPGTSDEHLSVVRYLATAHIDGAVIITTPQEVSLQDVRKEINFCRKVKLPIIGVVENMSGFICPKCKKESQIFPPTTGGAELMCQDLEVPLLGRVPLDPLIGKNCDKGQSFFIDAPDSPATLAYRSIIQRIQEFCNLHQSKEENLISS [NUBP1]”, the “solubility in G1/S (log2)” value in the data set on HeLa Kyoto [1] worked out at 0.398. The melting temperature came out at 52.4 °C in the data set with HeLa Kyoto [2] (cell cycle stage: G1/S) and 52.7 °C in the data set on HeLa Kyoto [2] (cell cycle stage: mitosis). Also, the “solubility change mitosis (log2)” value in the data set on HeLa Kyoto [3] is 0.00361. The thermal stability score in the data set with HeLa Kyoto [4] (setting [5]) was found to be 3.38; with HeLa Kyoto [4] (cell cycle stage: mitosis) it was 2.05.

For the sequence “MEFAELIKTPRVDNVVLHRPFYPAVEGTLCLTGHHLILSSRQDNTEELWLLHSNIDAIDKRFVGSLGTIIIKCKDFRIIQLDIPGMEECLNIASSIEALSTLDSITLMYPFFYRPMFEVIEDGWHSFLPEQEFELYSSATSEWRLSYVNKEFAVCPSYPPIVTVPKSIDDEALRKVATFRHGGRFPVLSYYHKKNGMVIMRSGQPLTGTNGRRCKEDEKLINATLRAGKRGYIIDTRSLNVAQQTRAKGGGFEQEAHYPQWRRIHKSIERYHILQESLIKLVEACNDQTHNMDRWLSKLEASNWLTHIKEILTTACLAAQCIDREGASILIHGTEGTDSTLQVTSLAQIILEPRSRTIRGFEALIEREWLQAGHPFQQRCAQSAYCNTKQKWEAPVFLLFLDCVWQILRQFPCSFEFNENFLIMLFEHAYASQFGTFLGNNESERCKLKLQQKTMSLWSWVNQPSELSKFTNPLFEANNLVIWPSVAPQSLPLWEGIFLRWNRSSKYLDEAYEEMVNIIEYNKELQAKVNILRRQLAELETEDGMQESP [MTMR9]”, the “solubility in G1/S (log2)” value in the data set with HeLa Kyoto [1] was -0.116. Further, the values for the melting temperature in the data set with HeLa Kyoto [2] (cell cycle stage: G1/S) and with HeLa Kyoto [2] (cell cycle stage: mitosis) were 50.2 °C and 50.6 °C, respectively. For the same sequence, in the data set on HeLa Kyoto [3], the “solubility change mitosis (log2)” value was -0.125. The values for the thermal stability score in the data set on HeLa Kyoto [4] (setting [5]) and in the data set on HeLa Kyoto [4] (cell cycle stage: mitosis) were -0.213 and -0.626, respectively.

Source of the values: the supplement of paper PMC5998384.
